Biological target: T1, human CNOT7 (human, UniProt Q9UIV1 11-262)
T1 construct: CNOT7 (Caf1), human; A second preparation (N-terminal His6, pET-28b, Rosetta2) was made for the SPR screening; also called Caf1; CAF1; source: E. coli BL21 (DE3), purified following the protocol for wild-type Tob
Assay: ITC; CNOT7 at 0.05 mM in the cell, TobN138 (wild type or K63A) at 0.45 mM titrated in; room temperature; 20 mM HEPES pH 7.5, 150 mM NaCl, 5% DMSO; one-site model
Details: both partners purified

T1 sequence (Q9UIV1 11-262): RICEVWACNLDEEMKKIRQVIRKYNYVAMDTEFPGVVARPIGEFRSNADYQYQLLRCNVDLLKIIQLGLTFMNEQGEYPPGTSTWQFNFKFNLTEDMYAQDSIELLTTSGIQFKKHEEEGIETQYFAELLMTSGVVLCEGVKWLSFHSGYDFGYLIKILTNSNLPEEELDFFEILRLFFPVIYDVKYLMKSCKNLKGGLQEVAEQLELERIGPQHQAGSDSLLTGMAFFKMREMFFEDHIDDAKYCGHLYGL

| Binder | stoichiometry N [sites] |
| --- | --- |
| human Tob residues 1-138 (TobN138), wild type (domain or fragment, UniProt P50616 1-138, looked up, Tob (Tob1), human, residues 1-138, containing the Box A and Box B motifs; Cloned into pGEX-6P-1 via BamHI and XhoI; A second preparation (His6-SUMO, pET-28b, Rosetta2) was made for the SPR screening; also called Tob1; TobN138 WT) MQLEIQVALNFIISYLYNKLPRRRVNIFGEELERLLKKKYEGHWYPEKPYKGSGFRCIHIGEKVDPVIEQASKESGLDIDDVRGNLPQDLSVWIDPFEVSYQIGEKGPVKVLYVDDNNENGCELDKEIKNSFNPEAQV | 0.611 ± 0.00797 |
| TobN138 K63A mutant (domain or fragment, human, UniProt P50616 1-138, looked up, Tob (Tob1), human, residues 1-138, with the point mutation K63A; Made by PCR mutagenesis with the human TobN138 expression plasmid as template; source: E. coli BL21 (DE3), purified following the protocol for wild-type Tob) MQLEIQVALNFIISYLYNKLPRRRVNIFGEELERLLKKKYEGHWYPEKPYKGSGFRCIHIGEAVDPVIEQASKESGLDIDDVRGNLPQDLSVWIDPFEVSYQIGEKGPVKVLYVDDNNENGCELDKEIKNSFNPEAQV | 0.737 ± 0.00585 |

Source: publication PMC4656213, “Structural basis for inhibition of the Tob-CNOT7 interaction by a fragment screening approach” (Protein & Cell, 2015)
